From patent publication US11275076B2, “Systems and methods for assessing blood platelet function” (Medtronic, Inc., priority 2016, dated 2022) come the findings set out here.

The assay concerns fresh whole blood. Put plainly: drop distance cycle tests (ferromagnetic washer) assessing clot retraction in blood samples. Format: cell-based. Conditions: FIG. 4; for clot retraction (object drop distance over time): compared with fresh whole blood without platelet inhibitor, tests began after assumed clot initiation. From the text:
Referring now to FIG. 3, a schematic drawing of a predicted trace 100 generated by successive drop distance test cycles of an object (e.g., the ferromagnetic object 32 described above) in blood over time that may be representative of data obtainable by an embodiment of a blood analysis system or apparatus of the present disclosure (e.g., the blood analysis system 20 of FIGS. 1 and 2). For example, and with additional reference to FIGS. 1 and 2, each test cycle includes the object 32 caused to move by the electromagnetic 34 toward the top of the chamber 30 and then allowed to drop; the drop distance of the object 32 is determined or sensed (e.g., an absolute drop distance is determined or sensed once the object 32 is at rest within the blood 40, or is determined or sensed at the end of a predetermined test cycle period). This so-determined drop distance serves as a single data point on the trace 100. The same drop distance test cycle is repeated for the same blood sample 40, at regular or irregular time intervals, over the course of an assessment time period with the result of each successive drop distance test cycle providing an additional data point from which the trace 100 is generated. (i.e., the determined “object drop distance” is plotted relative to the Y-axis at the corresponding point in time over the assessment time period along the X-axis).
As a point of reference, FIG. 4 presents the results of the drop distance cycle tests described above (using a ferromagnetic washer as the object) with three different blood samples. The first blood sample (“FWB”) consisted of fresh whole blood. The second blood sample (“FWB+5 ug/mL Reopro”) consisted of the fresh whole blood of the first sample and the platelet inhibitor Reopro at a concentration of 5 μg/mL. […] As explained in U.S. Pat. No. 8,921,115, clot strength can be another indicator of platelet function, and can be assessed (along with platelet retraction) with some systems and methods of the present disclosure. […]

B1: Reopro: the platelet inhibitor Reopro (antibody, chains of the INN, looked up, V domains shown)
VH: EVQLQQSGTVLARPGASVKMSCEASGYTFTNYWMHWVKQRPGQGLEWIGAIYPGNSDTSYIQKFKGKAKLTAVTSTTSVYMELSSLTNEDSAVYYCTLYDGYYVFAYWGQGTLVTVSA
VL: EIVLTQSPVTLSVTPGDSVSLSCRASRDISNNLHWFQQTSHESPRLLIKYASQSMSGIPSRFSGSGSGTDFTLSINSVETEDFGMYFCQQTNSWPYTFGGGTKLEIK
modifications: Fab
As for B1, the “object movement profile, dependence on platelet inhibitor concentration” value (comparison of 5 μg/mL and 10 μg/mL Reopro in fresh whole blood) is recorded as “dose dependent”. Also, the “clot retraction (object drop distance over time)” value by setting is: (fresh whole blood + 5 μg/mL Reopro) “first blood sample (with normal platelet function) showed greater clot retraction that the second and third blood samples”; (fresh whole blood + 10 μg/mL Reopro) “first blood sample (with normal platelet function) showed greater clot retraction that the second and third blood samples”.
